Non-standard residues stand in square brackets, D forms with d. No end group written: not given here. *: point of attachment. Butanoyl(4-N3) = [N-]=[N+]=NCCCC(=O)*; Hyp = O=C(O)[C@@H]1C[C@@H](O)CN1; Pra = C#CC[C@H](N)C(=O)O
B1: N3-(GPO)3GFOGER(GPO)3GG (peptide)
peptide: {Butanoyl(4-N3)}-GP[Hyp]GP[Hyp]GP[Hyp]GF[Hyp]GERGP[Hyp]GP[Hyp]GP[Hyp]GG
notes: collagen-like peptide, printed in short form as N3-(GPO)3GFOGER(GPO)3GG and written out here; Forms a homotrimeric triple helix; details are in Supporting Information Section 1.1; also called CLP; source: synthetic peptide (Fmoc solid phase synthesis), purified by RP-HPLC
B2: (VPGFG)6-(GPO)3GFOGER(GPO)3GG (peptide)
chain: H-VPGFGVPGFGVPGFGVPGFGVPGFGVPGFG[Pra]GP[Hyp]GP[Hyp]GP[Hyp]GF[Hyp]GERGP[Hyp]GP[Hyp]GP[Hyp]GG
modifications: triazole (positions not given here); not fully specified (residue 31, bridges); also: no peptide bond between residues 31 and 32, the two parts are joined by azide-alkyne cycloaddition
notes: elastin-like peptide NH2-(VPGFG)6G', written out here; the last G stands for G' (propargylglycine); collagen-like peptide (GPO)3GFOGER(GPO)3GG as in m2; the printed O (hydroxyproline) is written as P; Two synthetic peptides joined through a triazole, written as one chain; Reaction details are in Supporting Information Section 1.2; also called F6-GFOGER; ELP-CLP conjugate; source: synthetic …

How the values were obtained:
[1] = molecular target: the molecule itself; experiment: circular dichroism spectroscopy; free CLP peptides, 0.35 mM in HPLC grade water (pH 6.5 at 4°C), 0.2 cm cuvette; wavelength scans at 4 and 80°C and melting scans; monomers to triple helix
[2] = molecular target: the molecule itself; experiment: circular dichroism spectroscopy; ELP-CLP conjugates, wavelength scans at 0.1 mM and melting scans at 0.35 mM in HPLC grade water (pH 6.5 at 4°C), 0.2 cm cuvette; monomers to triple helix

Protein | stoichiometry N [1] | stoichiometry N [2]
B1 | 3 | 
B2 |  | 3
